Laboratory results published in paper PMC3456991 (Journal of molecular biology, 2012).
Like-named read-outs stand apart in the source and are kept apart here.

Experiments:
SEC [1] = target: the molecule itself; assay: SEC
SEC [2] = target: the molecule itself; assay: SEC; remark: listed apart in the source
SEC-MALS = target: the molecule itself; assay: SEC-MALS
SEC [3] = target: the molecule itself; assay: SEC; remark: listed apart in the source
[4] = target: the molecule itself; assay: NMR chemical shift comparison of monomer and dimer

Protein	binding result (SEC [1])	Kd (SEC [2]) [µM]	also measured
Fis1ΔTM-C79S/C87S (domain or fragment, Saccharomyces cerevisiae) MMTKVDFWPTLKDAYEPLYPQQLEILRQQVVSEGGPTATIQSRFNYAWGLIKSTDVNDERLGVKILTDIYKEAESRRRESLYYLTIGSYKLGEYSMAKRYVDTLFEHERNNKQVGALKSMVEDKIQKE	binds		
Fis1ΔTM-A72P (domain or fragment, Saccharomyces cerevisiae) MMTKVDFWPTLKDAYEPLYPQQLEILRQQVVSEGGPTATIQSRFNYAWGLIKSTDVNDERLGVKILTDIYKEPESRRRECLYYLTIGCYKLGEYSMAKRYVDTLFEHERNNKQVGALKSMVEDKIQKE		≥ 3000	
Fis1ΔTM (1-127), wild type cytoplasmic domain of yeast Fis1 (domain or fragment, Saccharomyces cerevisiae) MMTKVDFWPTLKDAYEPLYPQQLEILRQQVVSEGGPTATIQSRFNYAWGLIKSTDVNDERLGVKILTDIYKEAESRRRECLYYLTIGCYKLGEYSMAKRYVDTLFEHERNNKQVGALKSMVEDKIQKE		15 ± 3	stoichiometry N (SEC-MALS): 2; Kd (SEC [3]): 240 ± 80 nM
Fis1ΔTM-3 (E78D/I85T/Y88H) (domain or fragment, Saccharomyces cerevisiae) MMTKVDFWPTLKDAYEPLYPQQLEILRQQVVSEGGPTATIQSRFNYAWGLIKSTDVNDERLGVKILTDIYKEAESRRRDCLYYLTTGCHKLGEYSMAKRYVDTLFEHERNNKQVGALKSMVEDKIQKE	binds		
Fis1ΔTM (1-126) without a linker or affinity tag, for NMR (domain or fragment, Saccharomyces cerevisiae, UniProt P40515 1-126, looked up) MTKVDFWPTLKDAYEPLYPQQLEILRQQVVSEGGPTATIQSRFNYAWGLIKSTDVNDERLGVKILTDIYKEAESRRRECLYYLTIGCYKLGEYSMAKRYVDTLFEHERNNKQVGALKSMVEDKIQK			binding result [4]: binds
